Assay results: patent US20250059295A1 (AstraZeneca / MedImmune, published 2025)

Assays:
[1] = molecular target: T1, CD8 (cluster of differentiation 8), CD8ab (UniProt P01732 22-235; P10966 22-210); test: flow cytometry on cells carrying CD8
T1 construct: whole, on cells; The method names Jurkat (TCR neg) CD8ab+ cells
Method: (§1) Cell based binding assays were performed on BD FACSymphony™ A5 Cell Analyzer. To determine binding affinity of AZD6621, C4-2 cells and Jurkat (TCR neg) CD8ab+ cells expressing Steap2 and CD8ab respectively were used for the assay. The cells were harvested and resuspended in FACS buffer (DPBS-1X, 2% FBS, & 5 mM EDTA) at 2×10e6 cells/ml. Cells were seeded in U-bottom Tissue Culture treated 96 Well-plate at 50 ul/well making the cell number at 100,000 per well. The test articles (AZD6621) titration were prepared (2×) using FACS buffer with the starting working concentration of 600 nM and with 1:4 dilution up to 8 titration points. Cells (50 ul/well) were then combined with primary antibody (50 ul/well) titration and incubated at 4° C. for 1 hour. After incubation, the cells were washed 2× using 200 ul of FACS buffer and resuspended with freshly prepared FACS buffer (100 ul/well) containing secondary antibody (Anti-H+L: Goat anti-Human IgG (H+L) Cross-Adsorbed Secondary Antibody, Alexa Fluor 647 (Invitrogen #A-21445) at 1:400 dilution) & DAPI (Live/Dead stain). The secondary antibody was incubated at 4° C. for 1 hour. […] The data was analyzed with FlowJo v 10.6.1. The target receptor binding was determined using geometric mean calculation on FlowJo software detecting the positive APC signal in each well. […]

[2] = molecular target: T2, six transmembrane epithelial antigen of prostate-2 (STEAP2) (human, UniProt Q8NFT2 1-490); test: flow cytometry on C4-2 cells expressing STEAP2
T2 construct: whole, on cells
T2 sequence (looked up): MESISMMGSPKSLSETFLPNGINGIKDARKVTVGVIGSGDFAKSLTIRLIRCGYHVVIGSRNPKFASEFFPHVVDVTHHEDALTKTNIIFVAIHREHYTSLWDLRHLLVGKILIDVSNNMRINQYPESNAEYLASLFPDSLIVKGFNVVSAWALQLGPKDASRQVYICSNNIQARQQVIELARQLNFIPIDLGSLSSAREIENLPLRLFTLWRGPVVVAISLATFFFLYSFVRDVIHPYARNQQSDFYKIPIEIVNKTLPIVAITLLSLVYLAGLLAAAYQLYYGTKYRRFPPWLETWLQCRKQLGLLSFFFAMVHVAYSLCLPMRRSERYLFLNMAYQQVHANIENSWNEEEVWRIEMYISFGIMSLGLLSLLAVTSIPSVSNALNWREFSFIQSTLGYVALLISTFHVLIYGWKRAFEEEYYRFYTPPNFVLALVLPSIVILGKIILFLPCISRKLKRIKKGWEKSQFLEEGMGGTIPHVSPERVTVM
Method: as §1

T1 sequence (P01732 22-235, chain 1 of 2): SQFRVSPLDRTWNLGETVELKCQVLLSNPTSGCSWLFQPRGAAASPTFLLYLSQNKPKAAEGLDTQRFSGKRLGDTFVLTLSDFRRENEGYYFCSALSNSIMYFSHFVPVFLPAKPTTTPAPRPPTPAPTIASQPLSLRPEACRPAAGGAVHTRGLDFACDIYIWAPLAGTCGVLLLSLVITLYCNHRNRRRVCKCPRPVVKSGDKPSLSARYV
T1 sequence (P10966 22-210, chain 2 of 2): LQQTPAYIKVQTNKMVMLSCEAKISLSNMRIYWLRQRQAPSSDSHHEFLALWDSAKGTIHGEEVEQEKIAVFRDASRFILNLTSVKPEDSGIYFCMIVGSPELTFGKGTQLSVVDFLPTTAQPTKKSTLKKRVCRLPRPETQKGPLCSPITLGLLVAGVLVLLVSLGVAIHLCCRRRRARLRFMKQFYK

binding result [1]: binds | binding result [2]: binds
B1: 40A3LO12-TED4-K17/E75 (other)
heavy 1: QVQLQQSGPGLVKPSQTLSLTCAISGDSVSRNSAVWNWIRQSPSRGLEWLGRTYYRSKWYNDYAVSVKSRITINPDTSKNQFSLQLNSVTPEDTAVYYCARGLRQNQFYYYMDVWGKGTTVTVSSASTKGPSVFPLAPSSKSTSGGTAALGCLVKDYFPEPVTVSWNSGALTSGVHTFPAVLQSSGLYSLKSVVTVPSSSLGTQTYICNVNHKPSNTKVDKRVEPKSCDGGGGSGGGGSEVQLVESGGALVKPGGSLRLSCAASGFTFTEAWMHWVRQAPGKQLEWVAQIKDRSQTYATYYAESVKGRFTISRDDSKNTLYLQMNSLKTEDTAVYYCRGVYYANAPFDYWGQGTLVTVSSASTKGPSVCPLAPSSKSTSGGTADLGCLVKDYFPEPVTVSWNSGALTSGVHTFPAVLQSSGLYSLSSVVTVPSSSLGTQTYICNVNHKPSNTKVDKRVEPKSVDKTHTCPPCPAPPVAGPSVFLFPPKPKDTLMISRTPEVTCVVVDVKHEDPEVKFNWYVDGVEVHNAKTKPREEQYNSTYRVVSVLTVLHQDWLNGKEYKCKVSNKALPAPIEKTISKAKGQPREPQVYTLPPCREEMTKNQVSLWCLVKGFYPSDIAVEWESNGQPENNYKTTPPVLDSDGSFFLYSKLTVDKSRWQQGNVFSCSVMHEALHNHYTQKSLSLSPGK
light 1: not shown
heavy 2: EVQLLESGGGLVQPGGSLRLSCAASGFTFDDYAIGWFRQAPGKEREGVSCIRVSDGSTYYADSVKGRFTISRDNSKNTLYLQMNSLRAEDTAVYYCAAGSLYTCVQSIVWPARPYYDMDYWGQGTLVTVSSGGGGSGGGGSQVQLQQSGPGLVKPSQTLSLTCAISGDSVSRNSAVWNWIRQSPSRGLEWLGRTYYRSKWYNDYAVSVKSRITINPDTSKNQFSLQLNSVTPEDTAVYYCARGLRQNQFYYYMDVWGKGTTVTVSSASTKGPSVFPLAPSSKSTSGGTAALGCLVKDYFPEPVTVSWNSGALTSGVHTFPAVLQSSGLYSLKSVVTVPSSSLGTQTYICNVNHKPSNTKVDKRVEPKSCDKTHTCPPCPAPPVAGPSVFLFPPKPKDTLMISRTPEVTCVVVDVKHEDPEVKFNWYVDGVEVHNAKTKPREEQYNSTYRVVSVLTVLHQDWLNGKEYKCKVSNKALPAPIEKTISKAKGQPREPQVCTLPPSREEMTKNQVSLSCAVKGFYPSDIAVEWESNGQPENNYKTTPPVLDSDGSFFLVSKLTVDKSRWQQGNVFSCSVMHEALHNHYTQKSLSLSPGK
light 2: DIVMTQSPLSLPVTPGEPASISCRSSQSLVHNTGNTYLSWYLQKPGQSPQSLIYKVSNRASGVPDRFSGSGSGTDFTLKISRVEAEDVGVYYCGQGTQAPFTFGSGTKVEIKGQPKAAPSVRLFPPCSEELQANKATLVCLISDFYPGAVTVAWKADSSPVKAGVETTTPSKQSNNKYAASSYLSLTPEQWKSHRSYSCQVTHEGSTVEKTVAPTEVS
notes: also called TED4 LO12
